Experiment [1] concerns the target T1, rat Na+/K+ ATPase α1 subunit (rat, UniProt P06685). Description: co-immunoprecipitation from co-transfected COS cells (FIGS. 7-9).
Experiment [2] concerns the target T1, rat Na+/K+ ATPase α1 subunit. The experiment in a line: co-immunoprecipitation from co-transfected COS cells with anti-Na+/K+ ATPase α1 or anti-hCG antibody (FIG. 6).

Experimental findings from patent US6306613, “Modulators of leaderless protein export and methods for identifying and using the same” (Ciblex Corporation, dated 2001) are described below.

B1: neomycin phosphotransferase (NPT) (enzyme)
chain: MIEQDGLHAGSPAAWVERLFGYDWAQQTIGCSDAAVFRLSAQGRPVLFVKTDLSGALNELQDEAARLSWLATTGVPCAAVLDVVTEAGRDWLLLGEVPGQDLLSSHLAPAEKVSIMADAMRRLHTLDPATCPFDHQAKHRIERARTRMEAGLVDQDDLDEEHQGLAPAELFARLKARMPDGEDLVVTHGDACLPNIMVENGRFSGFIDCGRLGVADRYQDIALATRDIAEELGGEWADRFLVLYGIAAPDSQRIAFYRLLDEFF
For B1, the binding result in experiment [1] is on record as “no binding”.

B2: human chorionic gonadotropin α (hCG-α) (ligand)
chain: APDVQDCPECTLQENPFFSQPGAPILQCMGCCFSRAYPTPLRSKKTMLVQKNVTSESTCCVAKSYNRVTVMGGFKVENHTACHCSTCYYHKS
Turning to B2, the binding result in experiment [2] was “no binding”.
